The record followed here is article PMC11066147 (Heliyon, 2024).

B1: Plasmodium falciparum heat shock protein 70-1 (PfHsp70-1) (natural protein)
chain: not shown
B2: Plasmodium falciparum Hsp110 (PfHsp70-z, PF3D7_0708800) (natural protein)
chain: MSVLGIDIGNDNSVVATINKGAINVVRNDISERLTPTLVGFTEKERLIGDSALSKLKSNYKNTCRNIKNLIGKIGTDVKDDIEIHEAYGDLIPCEYNYLGYEVEYKNEKVVFSAVRVLSALLSHLIKMAEKYIGKECKEIVLSYPPTFTNCQKECLLAATKIINANVLRIISDNTAVALDYGMYRMKEFKEDNGSLLVFVNIGYANTCVCVARFFSNKCEILCDIADSNLGGRNLDNELIKYITNIFVNNYKMNPLYKNNTPELCPMGTGRLNKFLVTSTASDQQNGINNKVRIKLQEVAIKTKKVLSANNEASIHVECLYEDLDCQGSINRETFEELCSNFFLTKLKHLLDTALCISKVNIQDIHSIEVLGGSTRVPFIQNFLQQYFQKPLSKTLIADESIARGCVLSAAMVSKHYKVKEYECVEKVTHPINVEWHNINDASKSNVEKLYTRDSLKKKVKKIVIPEKGHIKLTAYYENTPDLPSNCIKELGSCIVKINEKNDKIVESHVMTTFSNYDTFTFLGAQTVTKSVIKSKDEKKKADDKTEDKGEKKDAKDQEQNDDKDQTNDNNMNEKDTNDKKEKNNETNSPNKTELKKGEEGKVQTCYTTIPIETLLAQGSYSSKDIFNFSEQEINMQHSDILEGERLKHLNELETIIYESRSRLNGIYKNFVMDDERDRILLSLDDYENWLYDNIEENKNMFIKKKEEIRDLIKNIVQKFDVYNSKQQNLGNIINHLNNIITQCSNKPSDESQNIINRTTKFLNNINSLQEQEKNKPLYEPPVYTLNDIEAEFNEVTQLAQKFFSKLEVEELAKQKAKQEKEKEKEKEKEKEKEKEKNEETNLDANEEQNNEAKNNEEKENSTKNENSANPEE
B3: ALLLMYRR (peptide)
peptide: ALLLMYRR
B4: NRNNTG (peptide)
peptide: NRNNTG
B5: ANNNMYRR (peptide)
peptide: ANNNMYRR
B6: NRLLTG (peptide)
peptide: NRLLTG

Where “and” joins values, the source holds several entries; their conditions need not be identical. Identical values can stand only once.

One data set concerns the target B2. Kind of data set: SPR.
Consider B1, for which the binding result is “binds”.

Another data set concerns the molecule itself. Nature of the data set: SPR.
For B2, the koff is 5.27e-05 s⁻¹ and 7.73e-05 s⁻¹ and 3.37e-05 s⁻¹.

The next data set addresses B1. Kind of data set: SPR.
The molecule B3 came in with a Kd of 61.8 ± 0.08 nM.
On to B4, for which the Kd was 10.2 ± 0.02 nM. This Kd is about 6.1-fold lower than that of the molecule before.
Still for that read-out and setting: the result for B5 reads 4.02 ± 0.02 nM.
On to B6, for which the affinity, expressed as Kd, was 97.4 ± 0.04 nM.

In a further data set the target is B2. Nature of the data set: SPR. The source holds these as a separate data set.
Turning to B3, binding was characterised by a dissociation constant (Kd) of 43.1 ± 0.01 nM.
The molecule B4 returned a Kd of 24.1 ± 0.01 nM.
Same read-out and setting: the figure for B5 is 9.37 ± 0.07 nM; for B6 it is 145 ± 0.03 nM.

For the next data set, the target named is T1, E. coli Hsp70 (DnaK) (E. coli, UniProt P0A6Y8 1-638). Kind of data set: SPR.
As for B3, the Kd was found to be 82 ± 0.02 nM.
For B4, the Kd came to 24.9 ± 0.09 nM. Against the preceding molecule, the Kd is about 3.3-fold lower.
On to B5, for which the affinity, expressed as Kd, was 440 ± 4 nM.
Take B6: the Kd turned out to be 12.3 ± 0.03 nM.

Another data set concerns the target B1. Kind of data set: SPR. This is another data set of the same source.
B3 showed a Kd of 140 ± 0.4 nM.
The same measure, in the same setting: the figure for B4 is 296 ± 0.07 nM; for B5 it is 45.4 ± 0.07 nM; for B6 it is 181 ± 0.01 nM.

A further data set deals with B2. Kind of data set: SPR. This is another data set of the same source.
B3 registered a Kd of 97.1 ± 0.09 nM.
Turning to B4, the dissociation constant (Kd) is 52.5 ± 0.05 nM.
The same measure, in the same setting: the figure for B5 is 8.31 ± 0.01 nM; for B6 it is 128 ± 0.08 nM.

The next data set addresses T1, E. coli Hsp70 (DnaK). Nature of the data set: SPR. The source holds these as a separate data set.
In turn, B3 yielded a Kd of 4.45 ± 0.05 µM.
B4: the Kd stood at 7.31 ± 0.01 µM.
In turn, B5 yielded a Kd of 8.96 ± 0.06 µM.
Molecule B6 showed a Kd of 2.53 ± 0.03 µM.
